Values of other authors, collected in PMC3381941.
Where two headings read alike, the source gives them in different places.

Assays:
[1] = biological target: Mtf1 (Saccharomyces cerevisiae) (UniProt P14908); assay: protein-protein crosslinking
[2] = biological target: Mtf1 (Saccharomyces cerevisiae) (UniProt P14908); assay: protein-protein crosslinking; remark: listed apart in the source

UniProt P14908, sequence (P14908 2-341): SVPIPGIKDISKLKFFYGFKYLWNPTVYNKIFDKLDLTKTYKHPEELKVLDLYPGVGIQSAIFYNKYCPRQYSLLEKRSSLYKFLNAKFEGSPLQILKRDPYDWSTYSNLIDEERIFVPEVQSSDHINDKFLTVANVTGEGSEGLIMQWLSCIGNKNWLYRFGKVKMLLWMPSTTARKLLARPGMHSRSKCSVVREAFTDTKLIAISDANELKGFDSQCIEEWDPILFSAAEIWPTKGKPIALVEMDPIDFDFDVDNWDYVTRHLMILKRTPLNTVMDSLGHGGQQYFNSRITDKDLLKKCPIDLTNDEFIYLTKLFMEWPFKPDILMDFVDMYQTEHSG

Kd [1]: 600 nM | Kd [2]: 400 nM
Substance: Rpo41 (from UniProt P13433)
